For orientation: stoichiometry N means a count of units in the complex or per binding partner.

The source of these data is publication doi:10.1101/528042 (bioRxiv, 2019).

This series deals with the molecule itself. The series can be described thus: SEC. A general note: SEC sorts molecules by how far they enter the pores of the column.

B1: S-OPA1 (short S1 isoform of splice form 1 human OPA1), wild type (natural protein, UniProt O60313 196-960, looked up)
chain: TDRGSESDKHFRKVSDKEKIDQLQEELLHTQLKYQRILERLEKENKELRKLVLQKDDKGIHHRKLKKSLIDMYSEVLDVLSDYDASYNTQDHLPRVVVVGDQSAGKTSVLEMIAQARIFPRGSGEMMTRSPVKVTLSEGPHHVALFKDSSREFDLTKEEDLAALRHEIELRMRKNVKEGCTVSPETISLNVKGPGLQRMVLVDLPGVINTVTSGMAPDTKETIFSISKAYMQNPNAIILCIQDGSVDAERSIVTDLVSQMDPHGRRTIFVLTKVDLAEKNVASPSRIQQIIEGKLFPMKALGYFAVVTGKGNSSESIEAIREYEEEFFQNSKLLKTSMLKAHQVTTRNLSLAVSDCFWKMVRESVEQQADSFKATRFNLETEWKNNYPRLRELDRNELFEKAKNEILDEVISLSQVTPKHWEEILQQSLWERVSTHVIENIYLPAAQTMNSGTFNTTVDIKLKQWTDKQLPNKAVEVAWETLQEEFSRFMTEPKGKEHDDIFDKLKEAVKEESIKRHKWNDFAEDSLRVIQHNALEDRSISDKQQWDAAIYFMEEALQARLKDTENAIENMVGPDWKKRWLYWKNRTQEQCVHNETKNELEKMLKCNEEHPAYLASDEITTVRKNLESRGVEVDPSLIKDTWHQVYRRHFLKTALNHCNLCRRGFYYYQRHFVDSELECNDVVLFWRIQRMLAITANTLRQQLTNTEVRRLEKNVKEVLEDFAEDGEKKIKLLTGKRVQLAEDLKKVREIQEKLDAFIEALHQEK
B1: the “stoichiometry N” value came out at 2.
